In series [1] the test system is PCSK9 gene. The series can be described thus: PCSK9 gRNA/SpCas9 editing in primary human hepatocytes (Tables 2, 4). Format: cell-based. The settings on record: SpCas9 mRNA MS002 1:1 by weight; for Human Primary Hepatocyte Editing % 100: 100 ng/RNA/mL; for Human Primary Hepatocyte Editing % 500: 500 ng/RNA/mL; for Human Primary Hepatocyte Editing % 2500: 2500 ng/RNA/mL. The protocol:
In set of experiments, PCSK9 gRNAs were co-transfected with an equivalent amount (1:1 ratio by weight) of in vitro transcribed commercially available SpCas9 mRNA MS002 purchased from TriLink Biotechnologies into primary human hepatocytes at 2500, 500, or 100 ng/RNA/mL and processed as described in detailed methods. Extracted genomic DNA was analyzed for gene editing at the target site with next-generation sequencing of PCR amplicons generated around the target sites. Samples were prepared using the Nextera XT DNA library preparation kit (Illumina) according to the manufacturer's protocol. Briefly, two rounds of PCR were performed first to amplify the region of interest and second to add DNA sequences required for next generation sequencing and sample identification to the initial product. The final amplicon was sequenced on the Illumina MiSeq instrument according to the manufacturer's protocol. A wide range of editing activities (Table 2) were observed. In a second set of experiments, ANGPTL3 gRNAs were co-transfected with an equivalent amount of in vitro transcribed SpCas9 mRNA (1:1 ratio by weight) into primary human hepatocytes and processed and analyzed similarly (Table 3).
PCSK9 gRNAs were co-transfected with an equivalent amount of in vitro transcribed SpCas9 mRNA MS002 (1:1 ratio by weight) into primary human hepatocytes and processed as described in detailed methods. A wide range of editing activities were observed (Table 4; ND=Not determined). The guides with the highest editing activity at five days post transfection were GA001, GA002, GA007, and GA008.
Human primary hepatocytes were transfected at 2500, 1250, 500, and 250 ng/test article/mL with SpCas9 mRNA MS002 and a gRNA targeting PCSK9 with modifications to the tracr. Genomic DNA was processed, sequenced, and analyzed as described in the detailed methods section. GA156 was transfected to serve as a positive control.
Plating, culturing, and transfection of primary hepatocytes. Primary human liver hepatocytes (PHH) and primary cynomolgus liver hepatocytes (PCH) from BioIVT were cultured per the manufacturer's protocol. Briefly, primary human hepatocytes and primary cyno hepatocytes were obtained as frozen aliquots from BioIVT. Four lots of primary human hepatocytes, each derived from a de-identified individual donor, were used for the experiments: STL (main donor) was used for all experiments, including screening experiments and off-target experiments; HLY, JLP, and TLY were used for off-target experiments. The HFG lot of primary cyno hepatocytes were used for experiments. Following the manufacturer's instructions, cells were thawed and rinsed prior to plating in 24-well plates that had been coated with bovine collagen overnight, with a density of approximate 350,000 cells/well in INVITROGRO hepatocyte medium supplemented with TORPEDO antibiotic mix (BioIVT). The cells were thawed and resuspended in hepatocyte thawing medium followed by centrifugation at 100 g for 10 min at 4° C. The supernatant was discarded, and the pelleted cells resuspended in hepatocyte plating medium. Each vial contains approximately 5 million cells that were used for plating one 24-well plate. Plated cells were allowed to settle and adhere for 4-6 h in a tissue culture incubator at 37° C. under 5% CO2 atmosphere. After incubation, cells were checked for monolayer formation. The incubating media were then replaced with fresh hepatocyte maintenance media (complete INVITROGRO medium obtained from BioIVT, the cell line provider). The cells thus became ready for transfection. Each of the gRNAs were co-transfected with an equivalent amount of in vitro transcribed ABE8.8 mRNA (1:1 ratio by molecular weight) into primary human hepatocytes via MessengerMax reagent (Lipofectamine), using various dilutions to assess for editing activity at different concentrations of test article. MessengerMAX from Thermo Fisher is used for transfection. […]

Series [2] relates to PCSK9 gene. The series can be described thus: PCSK9 gRNA/SpCas9 editing in primary cynomolgus hepatocytes (Tables 2, 22). Format: cell-based, cynomolgus monkey. The settings on record: SpCas9 mRNA MS002 1:1 by weight; for Cyno Primary Hepatocyte Editing % 100: 100 ng/RNA/mL; for Cyno Primary Hepatocyte Editing % 500: 500 ng/RNA/mL; for Cyno Primary Hepatocyte Editing % 2500: 2500 ng/RNA/mL.

In the oligonucleotide strings, read from the 5' end, every base follows the letter of its sugar. An asterisk marks phosphorothioate; unmarked linkages are phosphodiester. Other units and linkages are bracketed, terminal groups are in braces. A string of capitals states the bases alone. m = 2'-O-methyl; r = 2'-OH (RNA)

B1: GA191: PCSK9 gRNA; protospacer GCCCCATGTCGACTACATCG (SEQ ID NO: 185) (nucleic acid)
guide: mG*mC*mC*rCrCrArUrGrUrCrGrArCrUrArCrArUrCrGrGrUrUrUrUrArGrArGrCrUrArGrArArArUrArGrCrArArGrUrUrArArArArUrArArGrGrCrUrArGrUrCrCrGrUrUrArUrCrArArCrUrUrGrArArArArArGrUrGrGrCrArCrCrGrArGrUrCrGrGrUrGrCrU*mU*mU*mU
In the case of B1, in the series on PCSK9 gene [1], the “Human Primary Hepatocyte Editing % 100” value is on record as 3%, the “Human Primary Hepatocyte Editing % 500” value came to 12.2% and the “Human Primary Hepatocyte Editing % 2500” value stood at 34.6%. Further, in the series with PCSK9 gene [2], the “Cyno Primary Hepatocyte Editing % 100” value was 5.46%, the “Cyno Primary Hepatocyte Editing % 500” value came to 26.79% and the “Cyno Primary Hepatocyte Editing % 2500” value was 51.79%.

B2: GA193: PCSK9 gRNA; protospacer GGGGCTGGTATTCATCCGCC (SEQ ID NO: 187) (nucleic acid)
guide: GGGGCUGGUAUUCAUCCGCCGUUUUAGAGCUAGAAAUAGCAAGUUAAAAUAAGGCUAGUCCGUUAUCAACUUGAAAAAGUGGCACCGAGUCGGUGCUUUU
modifications: sugars from the 5' end m3 r94 m3, linkages s3 o93 s3 (s phosphorothioate, o phosphodiester), T or U not given here
With B2, in the series on PCSK9 gene [1], the “Human Primary Hepatocyte Editing % 100” value is 3.92%, the “Human Primary Hepatocyte Editing % 500” value worked out at 15.68% and the “Human Primary Hepatocyte Editing % 2500” value is given as 35.77%. Also, in the series with PCSK9 gene [2], the “Cyno Primary Hepatocyte Editing % 100” value was determined as 8.70%, the “Cyno Primary Hepatocyte Editing % 500” value amounted to 32.02% and the “Cyno Primary Hepatocyte Editing % 2500” value stood at 52.89%.

B3: GA195: PCSK9 gRNA; protospacer ACCACCGGGAAATCGAGGGC (SEQ ID NO: 189) (nucleic acid)
guide: ACCACCGGGAAAUCGAGGGCGUUUUAGAGCUAGAAAUAGCAAGUUAAAAUAAGGCUAGUCCGUUAUCAACUUGAAAAAGUGGCACCGAGUCGGUGCUUUU
modifications: sugars from the 5' end m3 r94 m3, linkages s3 o93 s3 (s phosphorothioate, o phosphodiester), T or U not given here
On to B3, for which, in the series with PCSK9 gene [1], the “Human Primary Hepatocyte Editing % 100” value is listed as 3.58%, the “Human Primary Hepatocyte Editing % 500” value was determined as 13.3% and the “Human Primary Hepatocyte Editing % 2500” value worked out at 12.57%. In the series on PCSK9 gene [2], the “Cyno Primary Hepatocyte Editing % 100” value is 0.69%, the “Cyno Primary Hepatocyte Editing % 500” value was found to be 4.77% and the “Cyno Primary Hepatocyte Editing % 2500” value was 18.78%.

B4: GA157: PCSK9 gRNA; protospacer GCCGTCCTCCTCGGAACGCA (SEQ ID NO: 151) (nucleic acid)
guide: mG*mC*mC*rGrUrCrCrUrCrCrUrCrGrGrArArCrGrCrArGrUrUrUrUrArGrArGrCrUrArGrArArArUrArGrCrArArGrUrUrArArArArUrArArGrGrCrUrArGrUrCrCrGrUrUrArUrCrArArCrUrUrGrArArArArArGrUrGrGrCrArCrCrGrArGrUrCrGrGrUrGrCrU*mU*mU*mU
In the case of B4, in the series with PCSK9 gene [1], the “Human Primary Hepatocyte Editing % 100” value was 0.62%, the “Human Primary Hepatocyte Editing % 500” value is 2.82% and the “Human Primary Hepatocyte Editing % 2500” value was 10.03%. Further, in the series with PCSK9 gene [2], the “Cyno Primary Hepatocyte Editing % 100” value stood at 0.78%, the “Cyno Primary Hepatocyte Editing % 500” value came to 2.93% and the “Cyno Primary Hepatocyte Editing % 2500” value was determined as 13.78%.

B5: GA189: PCSK9 gRNA; protospacer TCCTCGATGTAGTCGACATG (SEQ ID NO: 183) (nucleic acid)
guide: mU*mC*mC*rUrCrGrArUrGrUrArGrUrCrGrArCrArUrGrGrUrUrUrUrArGrArGrCrUrArGrArArArUrArGrCrArArGrUrUrArArArArUrArArGrGrCrUrArGrUrCrCrGrUrUrArUrCrArArCrUrUrGrArArArArArGrUrGrGrCrArCrCrGrArGrUrCrGrGrUrGrCrU*mU*mU*mU
As for B5, in the series on PCSK9 gene [1], the “Human Primary Hepatocyte Editing % 100” value turned out to be 1.76%, the “Human Primary Hepatocyte Editing % 500” value came out at 8.94% and the “Human Primary Hepatocyte Editing % 2500” value is on record as 31.23%. In the series with PCSK9 gene [2], the “Cyno Primary Hepatocyte Editing % 100” value is 3.30%, the “Cyno Primary Hepatocyte Editing % 500” value came to 15.58% and the “Cyno Primary Hepatocyte Editing % 2500” value is on record as 41.70%.

B6: GA194: PCSK9 gRNA; protospacer GTCGACATGGGGCAACTTCA (SEQ ID NO: 188) (nucleic acid)
guide: GUCGACAUGGGGCAACUUCAGUUUUAGAGCUAGAAAUAGCAAGUUAAAAUAAGGCUAGUCCGUUAUCAACUUGAAAAAGUGGCACCGAGUCGGUGCUUUU
modifications: sugars from the 5' end m3 r94 m3, linkages s3 o93 s3 (s phosphorothioate, o phosphodiester), T or U not given here
With B6, in the series on PCSK9 gene [1], the “Human Primary Hepatocyte Editing % 100” value is 2.32%, the “Human Primary Hepatocyte Editing % 500” value came to 12.39% and the “Human Primary Hepatocyte Editing % 2500” value worked out at 32.97%. In addition, in the series with PCSK9 gene [2], the “Cyno Primary Hepatocyte Editing % 100” value amounted to 2.38%, the “Cyno Primary Hepatocyte Editing % 500” value stood at 9.49% and the “Cyno Primary Hepatocyte Editing % 2500” value was determined as 30.91%.

B7: GA188: PCSK9 gRNA; protospacer TATTCATCCGCCCGGTACCG (SEQ ID NO: 182) (nucleic acid)
guide: mU*mA*mU*rUrCrArUrCrCrGrCrCrCrGrGrUrArCrCrGrGrUrUrUrUrArGrArGrCrUrArGrArArArUrArGrCrArArGrUrUrArArArArUrArArGrGrCrUrArGrUrCrCrGrUrUrArUrCrArArCrUrUrGrArArArArArGrUrGrGrCrArCrCrGrArGrUrCrGrGrUrGrCrU*mU*mU*mU
As to B7, in the series with PCSK9 gene [1], the “Human Primary Hepatocyte Editing % 100” value amounted to 4.21%, the “Human Primary Hepatocyte Editing % 500” value is 15.38% and the “Human Primary Hepatocyte Editing % 2500” value amounted to 41.02%. In the series on PCSK9 gene [2], the “Cyno Primary Hepatocyte Editing % 100” value is 0.01%, the “Cyno Primary Hepatocyte Editing % 500” value was 0.01% and the “Cyno Primary Hepatocyte Editing % 2500” value turned out to be 0.06%.

B8: GA192: PCSK9 gRNA; protospacer CCATGTCGACTACATCGAGG (SEQ ID NO: 186) (nucleic acid)
guide: mC*mC*mA*rUrGrUrCrGrArCrUrArCrArUrCrGrArGrGrGrUrUrUrUrArGrArGrCrUrArGrArArArUrArGrCrArArGrUrUrArArArArUrArArGrGrCrUrArGrUrCrCrGrUrUrArUrCrArArCrUrUrGrArArArArArGrUrGrGrCrArCrCrGrArGrUrCrGrGrUrGrCrU*mU*mU*mU
For B8, in the series on PCSK9 gene [1], the “Human Primary Hepatocyte Editing % 100” value is 1.14%, the “Human Primary Hepatocyte Editing % 500” value was determined as 6.02% and the “Human Primary Hepatocyte Editing % 2500” value is 16.7%. For the same molecule, in the series on PCSK9 gene [2], the “Cyno Primary Hepatocyte Editing % 100” value amounted to 0.60%, the “Cyno Primary Hepatocyte Editing % 500” value was determined as 1.50% and the “Cyno Primary Hepatocyte Editing % 2500” value amounted to 10.26%.

B9: GA197: PCSK9 gRNA; protospacer AGTGACCACCGGGAAATCGA (SEQ ID NO: 191) (nucleic acid)
guide: AGUGACCACCGGGAAAUCGAGUUUUAGAGCUAGAAAUAGCAAGUUAAAAUAAGGCUAGUCCGUUAUCAACUUGAAAAAGUGGCACCGAGUCGGUGCUUUU
modifications: sugars from the 5' end m3 r94 m3, linkages s3 o93 s3 (s phosphorothioate, o phosphodiester), T or U not given here
Regarding B9, in the series on PCSK9 gene [1], the “Human Primary Hepatocyte Editing % 100” value was found to be 1.22%, the “Human Primary Hepatocyte Editing % 500” value amounted to 3.29% and the “Human Primary Hepatocyte Editing % 2500” value was 15.03%. Also, in the series with PCSK9 gene [2], the “Cyno Primary Hepatocyte Editing % 100” value was 0.9%, the “Cyno Primary Hepatocyte Editing % 500” value was 3.89% and the “Cyno Primary Hepatocyte Editing % 2500” value is 18.21%.

B10: GA196: PCSK9 gRNA; protospacer GAGTGACCACCGGGAAATCG (SEQ ID NO: 190) (nucleic acid)
guide: GAGUGACCACCGGGAAAUCGGUUUUAGAGCUAGAAAUAGCAAGUUAAAAUAAGGCUAGUCCGUUAUCAACUUGAAAAAGUGGCACCGAGUCGGUGCUUUU
modifications: sugars from the 5' end m3 r94 m3, linkages s3 o93 s3 (s phosphorothioate, o phosphodiester), T or U not given here
With B10, in the series with PCSK9 gene [1], the “Human Primary Hepatocyte Editing % 100” value was determined as 0.75%, the “Human Primary Hepatocyte Editing % 500” value is recorded as 2.9% and the “Human Primary Hepatocyte Editing % 2500” value is 17.19%. Also, in the series on PCSK9 gene [2], the “Cyno Primary Hepatocyte Editing % 100” value stood at 1.09%, the “Cyno Primary Hepatocyte Editing % 500” value turned out to be 3.4% and the “Cyno Primary Hepatocyte Editing % 2500” value is recorded as 27.79%.

These data come from patent US20250152746A1, “BASE EDITING OF ANGPTL3 AND METHODS OF USING SAME FOR TREATMENT OF DISEASE” (Verve Therapeutics, Inc., priority 2020, published 2025).
